Assay results: paper PMC7344962 (Antibodies, 2020)
Changes are numbered by the printed parent chain. “And” between values parts separate entries of the source, which are not always exact repeats. Identical values can stand only once.

Target: T1, major surface antigen 1 (SAG1) of Toxoplasma gondii (Toxoplasma gondii, strain , UniProt P13664)
T1 construct: major surface antigen 1 (SAG1) of Toxoplasma gondii; SAG1 in complex with the parent antibody is in PDB 1YNT (cited); also called antigen SAG1
Assay: SPR; SAG1 covalently immobilised (1000 RU, EDC/NHS) on a CM5S chip; T200, 25 °C, HBS-EP+; single cycle kinetics with scFv at 600-200-66-22-7.5 nM, 50 µL/min; Langmuir 1:1 then two-state fitting model, similar Kd values in both
Conditions: both partners purified

T1 sequence (P13664 48-336): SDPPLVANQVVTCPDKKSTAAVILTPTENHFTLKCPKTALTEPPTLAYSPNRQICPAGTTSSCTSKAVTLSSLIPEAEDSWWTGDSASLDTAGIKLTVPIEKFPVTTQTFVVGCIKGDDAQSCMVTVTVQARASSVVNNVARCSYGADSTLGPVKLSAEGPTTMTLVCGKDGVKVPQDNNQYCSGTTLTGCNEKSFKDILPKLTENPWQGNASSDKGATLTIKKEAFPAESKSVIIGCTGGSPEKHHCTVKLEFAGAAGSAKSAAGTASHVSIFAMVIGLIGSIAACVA

B1: scFv S1A0 (scFv, V domains shown)
VH: QVQLQQSGAELVRPGVSVKISCKGSGYTFTDYGMHWVKQSHAKSLEWIGIISTYSGDASYNQKFKGKATMTVDKSSSTAYMELARLTSEDSAIYYCARSSTWYYFDYWGQGTTLTVSS
VL: DIQVTQTTSSLSASLGDRVTISCRASQDISNYLNWYQQKPDGTVKLLIYYTSRLHSGVPSRFSGSGSGTDYSLTISNLEQEDIATYFCQQGNTLPYTFGGGTKLEIK
notes: VH A: wild-type heavy variable domain of the murine monoclonal IgG2a antibody 4F11E12 (anti-SAG1); the antibody is also in PDB 1YNT; (Gly4Ser)3 peptide linker; VL 0: wild-type light variable domain of the murine monoclonal IgG2a antibody 4F11E12 (anti-SAG1); VH-linker-VL orientation; also called wild-type scFv; WT scFv; source: E. coli HB2151 periplasm, purified (HisTrap HP); not shown: …
Kd: ~200 nM

B2: scFv S1B4 (scFv, V domains shown)
VH: B1 VH with V16T, G24A, E82Q, A84S, R85S, I93V, T113L, L114V, S118A
VL: B1 VL with V4M, T8P, Q80P, F87Y
notes: VH B: as VH A of m1 with only the cluster III substitutions; (Gly4Ser)3 peptide linker; VL 4: as VL 0 of m1 with the stated changes; numbers count on: IMGT numbering; VH-linker-VL orientation; source: E. coli HB2151 periplasm; periplasmic extract loaded on HiScreen Capto L, purified; not shown: Gly3AlaSerHis6, C-terminal, kept
Kd: ~200 nM

B3: scFv S1D4 (scFv, V domains shown)
VH: QVQLQQSGAELVRPGTSVKISCKASGYTFTDYGMHWVKQRPGHGLEWIGIISTYSGDASYNQKFKGKATMTVDKSSSTAYMQLSSLTSEDSAVYYCARSSTWYYFDYWGQGTLVTVSA
VL: B1 VL with V4M, T8P, Q80P, F87Y
notes: VH D: as VH A of m1 with the cluster II and cluster III substitutions (VH Z without cluster I); numbers count on: IMGT numbering; (Gly4Ser)3 peptide linker; VL 4: as VL 0 of m1 with the stated changes; VH-linker-VL orientation; source: E. coli HB2151 periplasm; periplasmic extract loaded on HiScreen Capto L, purified; not shown: Gly3AlaSerHis6, C-terminal, kept
Kd: ~200 nM

B4: scFv S1C4 (scFv, V domains shown)
VH: B1 VH with S40R, H41P, A42G, K43H, S44G
VL: B1 VL with V4M, T8P, Q80P, F87Y
notes: VH C: as VH A of m1 with only the cluster II substitutions (C-C' loop); numbers count on: IMGT numbering; (Gly4Ser)3 peptide linker; VL 4: as VL 0 of m1 with the stated changes; VH-linker-VL orientation; source: E. coli HB2151 periplasm; periplasmic extract loaded on HiScreen Capto L, purified; not shown: Gly3AlaSerHis6, C-terminal, kept
Kd: ~200 nM and < 100 nM

B5: scFv S1A4 (scFv, V domains shown)
VH: B1 VH
VL: B1 VL with V4M, T8P, Q80P, F87Y
notes: VH A: as the VH of m1 (wild-type VH of 4F11E12); (Gly4Ser)3 peptide linker; VL 4: as VL 0 of m1 with the stated changes; numbers count on: IMGT numbering; VH-linker-VL orientation; source: E. coli HB2151 periplasm; periplasmic extract loaded on HiScreen Capto L, purified; not shown: Gly3AlaSerHis6, C-terminal, kept
Kd: ~200 nM
